This passage reports in vitro proliferation assay, Jeko-1 cells (MTS), high-concentration response, in vitro proliferation assay, Jeko-1 cells (MTS), low-concentration IFNα2b response and in vitro proliferation assay, Jeko-1 cells (MTS) results from patent EP2271364B1.

This experiment has as its target CD20 on human lymphoma cells (Daudi, Jeko-1) (human) (UniProt P11836). Description: cell-based or functional assay.
Chain of UniProt P11836 (P11836 whole entry): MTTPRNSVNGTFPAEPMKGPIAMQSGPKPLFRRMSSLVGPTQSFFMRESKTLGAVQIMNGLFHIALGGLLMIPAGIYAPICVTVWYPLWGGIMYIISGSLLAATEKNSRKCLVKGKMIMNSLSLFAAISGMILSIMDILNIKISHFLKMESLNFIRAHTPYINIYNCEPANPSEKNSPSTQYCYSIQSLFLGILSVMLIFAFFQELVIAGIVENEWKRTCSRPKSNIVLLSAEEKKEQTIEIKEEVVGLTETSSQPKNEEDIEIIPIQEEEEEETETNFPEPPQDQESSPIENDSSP

“20-2b, a DNL conjugate of CH3-AD2-IgG-hA20 (CH3-AD2-IgG-v-mab) with four IFN-α2b-DDD2 moieties (from UniProt P01563 24-188)” came in with an in vitro proliferation assay, Jeko-1 cells (MTS), high-concentration response of 0.85 nM and an in vitro proliferation assay, Jeko-1 cells (MTS), low-concentration IFNα2b response of 0.97 pM.
“veltuzumab (humanized anti-CD20 MAb hA20) (antibody)” had an in vitro proliferation assay, Jeko-1 cells (MTS) of 1.5 nM.
